Reference: article PMC4678811, “Assembly and dynamics of the U4/U6 di-snRNP by single-molecule FRET” (Nucleic Acids Research, 2015)
Where “and” joins values, the source holds several entries; their conditions need not be identical. Equal entries are not always repeated.

What was measured:
[1] = system: Prp3/4 (Prp3-Prp4 complex) (Saccharomyces cerevisiae); experiment: EMSA; settings: apparent; Hill 2.6; EMSA: 2 nM RNA, 10 mM K-HEPES pH 7.5, 100 mM KCl, 0.01% NP-40, 20 ug E. coli tRNA in 100 ul, on ice 60 min, 4% native gel 0.5X TBE 4 C; smFRET: 10 mM Tris-HCl …
[2] = system: Prp31 (Saccharomyces cerevisiae); experiment: EMSA; settings: apparent; Hill 1.9; EMSA: 2 nM RNA, 10 mM K-HEPES pH 7.5, 100 mM KCl, 0.01% NP-40, 20 ug E. coli tRNA in 100 ul, on ice 60 min, 4% native gel 0.5X TBE 4 C; smFRET: 10 mM Tris-HCl …
[3] = system: LSm2-LSm8 complex (Saccharomyces cerevisiae); experiment: EMSA; settings: apparent; Hill 1.7; EMSA: 2 nM RNA, 10 mM K-HEPES pH 7.5, 100 mM KCl, 0.01% NP-40, 20 ug E. coli tRNA in 100 ul, on ice 60 min, 4% native gel 0.5X TBE 4 C; smFRET: 10 mM Tris-HCl …
[4] = system: Snu13 (Saccharomyces cerevisiae); experiment: EMSA; settings: apparent; Hill 1; EMSA: 2 nM RNA, 10 mM K-HEPES pH 7.5, 100 mM KCl, 0.01% NP-40, 20 ug E. coli tRNA in 100 ul, on ice 60 min, 4% native gel 0.5X TBE 4 C; smFRET: 10 mM Tris-HCl …
[5] = system: Sm protein complex (SmB, D1, D2, D3, E, F, G) (Saccharomyces cerevisiae); experiment: EMSA; settings: apparent; Hill 3.5; EMSA: 2 nM RNA, 10 mM K-HEPES pH 7.5, 100 mM KCl, 0.01% NP-40, 20 ug E. coli tRNA in 100 ul, on ice 60 min, 4% native gel 0.5X TBE 4 C; smFRET: 10 mM Tris-HCl …
[6] = molecular target: the molecule itself; experiment: native MS; minor peaks of the Mono-Q column after the main peak of the purified LSm2–LSm8 complex

Row | Molecule | Kd [1] [nM] | Kd [2] [nM] | Kd [3] [nM] | Kd [4] [nM] | Kd [5] [nM] | stoichiometry N [6]
1 | U4/U6 snRNA duplex (full length) | 57 | 243 | 5 | 17 | 89 | –
2 | LSm2–LSm8 complex (complex, Saccharomyces cerevisiae, LSm2, Saccharomyces cerevisiae, untagged; LSm3, Saccharomyces cerevisiae, untagged; LSm4, Saccharomyces cerevisiae, amino acids 1-106, untagged; LSm5, Saccharomyces cerevisiae; LSm6, Saccharomyces cerevisiae, untagged; LSm7, Saccharomyces cerevisiae, untagged; LSm8, Saccharomyces cerevisiae; Both tags are TEV-cleavable; also called LSm 2–8 complex; LSm complex; source: S. cerevisiae BCY123, …) chain 1: MLFFSFFKTLVDQEVVVELKNDIEIKGTLQSVDQFLNLKLDNISCTDEKKYPHLGSVRNIFIRGSTVRYVYLNKNMVDTNLLQDATRREVMTERK chain 2: METPLDLLKLNLDERVYIKLRGARTLVGTLQAFDSHCNIVLSDAVETIYQLNNEELSESERRCEMVFIRGDTVTLISTPSEDDDGAVEI chain 3: MLPLYLLTNAKGQQMQIELKNGEIIQGILTNVDNWMNLTLSNVTEYSEESAINSEDNAESSKAVKLNEIYIRGTFIKFIKLQDNIIDKVKQQINSNNNSNSNGPGH chain 4: MSLPEILPLEVIDKTINQKVLIVLQSNREFEGTLVGFDDFVNVILEDAVEWLIDPEDESRNEKVMQHHGRMLLSGNNIAILVPGGKKTPTEAL chain 5: MSGKASTEGSVTTEFLSDIIGKTVNVKLASGLLYSGRLESIDGFMNVALSSATEHYESNNNKLLNKFNSDVFLRGTQVMYISEQKI chain 6: MHQQHSKSENKPQQQRKKFEGPKREAILDLAKYKDSKIRVKLMGGKLVIGVLKGYDQLMNLVLDDTVEYMSNPDDENNTELISKNARKLGLTVIRGTILVSLSSAEGSDVLYMQK chain 7: MSATLKDYLNKRVVIIKVDGECLIASLNGFDKNTNLFITNVFNRISKEFICKAQLLRGSEIALVGLIDAENDDSLAPIDEKKVPMLKDTKNKIENEHVIWEKVYESKTK | – | – | – | – | – | 2 and 3
